These results are taken from patent US20200277392A1 (Hoffmann-La Roche, published 2020).

Assay [1] addresses T1, human OX40 on cells (human, UniProt P43489 29-277).
T1 construct: also called CD134; OX40+ Cells
T1 sequence: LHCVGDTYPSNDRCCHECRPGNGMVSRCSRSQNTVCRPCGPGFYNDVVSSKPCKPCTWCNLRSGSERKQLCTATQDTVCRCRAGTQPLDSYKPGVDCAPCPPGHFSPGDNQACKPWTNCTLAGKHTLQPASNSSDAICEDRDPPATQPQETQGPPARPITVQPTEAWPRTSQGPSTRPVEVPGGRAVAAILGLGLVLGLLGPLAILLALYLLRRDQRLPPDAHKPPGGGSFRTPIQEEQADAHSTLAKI
The assay is described as follows: flow cytometry on OX40+ cells (activated human PBMC). How it is done:
(§1) For labeling, cells were harvested, washed with pre-warmed (37° C.) DPBS and adjusted to a cell density of 1×10⁷ cells/mL in DPBS. eFluor670 cell proliferation dye (eBioscience, Cat.-No. 65-0840-85) was added to the suspension of naïve human PBMC at a final concentration of […] and a final cell density of 0.5×10⁷ cells/mL in DPBS. Cells were then incubated for 10 min at room temperature in the dark. To stop the labeling reaction, 4 mL heat inactivated FBS was added and cells were washed three times with T cell medium. A 2:1 mixture of 1×10⁵ resting eFluor670 labeled human PBMC and 0.5×10⁵ unlabeled activated human PBMC were then added to each well of round-bottomed suspension cell 96-well plates (Greiner bio-one, cellstar, Cat. No. 650185).
(§2) Cells were stained for 120 minutes at 4° C. in the dark in 50 μL/well 4° C. FACS buffer containing different amounts of the indicated antigen binding molecules. After three washes with 4° C. FACS buffer, cells were stained for 45 minutes at 4° C. in the dark in 25 μL/well 4° C. FACS buffer containing a mixture of fluorescently labeled anti-human CD4 (clone RPA-T4, mouse IgG1 k, BioLegend, Cat.-No. 300532), anti-human CD8 (clone RPa-T8, mouse IgGlk, BioLegend, Cat.-No. 3010441) and Fluorescein isothiocyanate (FITC)-conjugated AffiniPure anti-human IgG Fcγ-fragment-specific goat IgG F(ab′)₂ fragment (Jackson ImmunoResearch, Cat.-No. 109-096-098).
Cells were then resuspended in […] FACS-buffer containing 0.2 μg/mL DAPI (Santa Cruz Biotec, Cat. No. Sc-3598) and acquired the same day using 5-laser LSR-Fortessa (BD Bioscience with DIVA software).
A general note: Flow cytometry measures light scatter and fluorescence of single cells or particles in a stream.

The target in assay [2] is T2, cynomolgus TnC with C-terminal Avi- and His-tags (cynomolgus, biotinylated at the C-terminal Avi-tag).
T2 construct: also called cynoTnC; cyno TnC
T2 chain: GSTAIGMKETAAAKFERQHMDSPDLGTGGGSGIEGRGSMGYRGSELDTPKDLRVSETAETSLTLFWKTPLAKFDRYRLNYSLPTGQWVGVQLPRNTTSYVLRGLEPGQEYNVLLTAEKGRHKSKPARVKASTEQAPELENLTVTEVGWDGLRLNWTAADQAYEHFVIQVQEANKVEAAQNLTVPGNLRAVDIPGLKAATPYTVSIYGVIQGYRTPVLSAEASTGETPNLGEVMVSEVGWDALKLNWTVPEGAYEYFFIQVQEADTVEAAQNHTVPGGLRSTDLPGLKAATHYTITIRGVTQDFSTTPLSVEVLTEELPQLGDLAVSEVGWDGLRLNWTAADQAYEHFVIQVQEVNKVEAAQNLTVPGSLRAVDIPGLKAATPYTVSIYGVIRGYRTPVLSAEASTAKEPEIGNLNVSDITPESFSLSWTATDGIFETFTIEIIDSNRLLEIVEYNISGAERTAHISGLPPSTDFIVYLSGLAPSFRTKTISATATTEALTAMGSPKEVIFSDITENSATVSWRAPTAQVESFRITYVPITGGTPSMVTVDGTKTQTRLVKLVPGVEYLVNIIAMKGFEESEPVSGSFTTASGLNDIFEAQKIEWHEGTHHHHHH
The assay is described as follows: SPR Biacore T200, biotinylated TnC on SA chip, bispecific as analyte, 1:1 fit, apparent KD (bivalent binding). On the procedure: (§3) The capacity of the bispecific constructs to bind human, murine and cynomolgus TnC was analysed by surface plasmon resonance (SPR). All SPR experiments were performed on a Biacore T200 at 25° C. with HBS-EP as running buffer (0.01 M HEPES pH 7.4, 0.15 M NaCl, 3 mM EDTA, 0.005% Surfactant P20, Biacore, Freiburg/Germany).
(§4) Biotinylated human, murine or cynomolgus TnC molecules were immobilised on a SA chip to reach an immobilization level of 10 resonance units (RU).
(§5) Following immobilisation, the bispecific molecules or control molecules were immediately passed over the chip surface at concentrations ranging from 0.05-50 nM, at a flow rate of 30 μL/minute for 120 seconds and a dissociation phase of 180 seconds. The surface was regenerated using 10 mM glycine pH2.1. Bulk refractive index differences were corrected for by subtracting the response obtained in a reference flow cell, where no TnC was immobilized. Affinity/Avidity was determined under these experimental conditions using the Langmuir 1:1 curve fitting. For bivalent binding the same 1:1 fitting was used leading to an apparent KD value.
For orientation: SPR reads the build-up and loss of mass on a sensor chip optically.

In assay [3] the target is T3, mouse TnC with C-terminal Avi- and His-tags (mouse, biotinylated at the C-terminal Avi-tag).
T3 construct: the N-terminal fn5 and C-terminal fn6 parts look like the human ones; also called muTnC; murine TnC
T3 chain: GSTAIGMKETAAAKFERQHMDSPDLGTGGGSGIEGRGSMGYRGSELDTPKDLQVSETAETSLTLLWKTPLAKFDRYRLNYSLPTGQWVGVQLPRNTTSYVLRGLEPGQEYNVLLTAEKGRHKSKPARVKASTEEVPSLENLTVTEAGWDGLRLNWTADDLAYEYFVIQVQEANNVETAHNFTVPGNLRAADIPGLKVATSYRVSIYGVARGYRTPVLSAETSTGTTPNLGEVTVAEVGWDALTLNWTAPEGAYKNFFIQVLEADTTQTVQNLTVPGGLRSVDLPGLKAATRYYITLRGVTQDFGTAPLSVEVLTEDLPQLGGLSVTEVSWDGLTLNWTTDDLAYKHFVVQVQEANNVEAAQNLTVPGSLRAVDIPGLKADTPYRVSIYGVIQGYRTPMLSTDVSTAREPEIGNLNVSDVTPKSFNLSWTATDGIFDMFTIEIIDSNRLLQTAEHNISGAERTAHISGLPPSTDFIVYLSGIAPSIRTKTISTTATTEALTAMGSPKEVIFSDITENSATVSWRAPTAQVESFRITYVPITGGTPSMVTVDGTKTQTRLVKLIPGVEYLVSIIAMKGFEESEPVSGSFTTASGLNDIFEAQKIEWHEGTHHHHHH
Described as above. On the procedure: as §3, §4, §5

The target of assay [4] is T1, human OX40 on cells. The assay can be described thus: flow cytometry on activated human PBMC, gated on CD8+ T cells; FITC anti-human IgG secondary; MFI baseline corrected. On the procedure: as §1
as §2, with “109-096-098). […]” for “109-096-098).”

Assay [5] concerns the target T4, human OX40 Fc(kih), monomeric Fc-linked human OX40 antigen ECD (human, UniProt P0DOX5 223-449 = IgG part).
T4 construct: Heterodimer of one OX40 ECD (aa 29-214)-AcTEV-Fc knob-Avi chain and one Fc hole chain; Biotinylated at the Avi tag for phage selection and ELISA; also called recombinant OX40 Fc (kih) receptor; biotinylated human OX40
The assay is described as follows: SPR (Biacore T200, 25 °C): bispecific held on immobilised human TnC; human OX40 Fc(kih) at 250 nM injected for 90 s as analyte 2. On the procedure:
All SPR experiments were performed on a Biacore T200 at 25° C. with HBS-EP as running buffer (0.01 M HEPES pH 7.4, 0.15 M NaCl, 3 mM EDTA, 0.005% Surfactant P20, Biacore, Freiburg/Germany).
Biotinylated human TnC was directly coupled to a flow cell of a streptavidin (SA) sensor chip. Immobilization levels up to 1000 resonance units (RU) were used.
Bulk refractive index differences were corrected for by subtracting the response obtained in a reference flow cell, where no protein was immobilized.

In assay [6] the target is T5, human TnC with C-terminal Avi- and His-tags (human, UniProt P24821 984-1798, biotinylated at the C-terminal Avi-tag).
T5 construct: also called huTnC; biotinylated human TnC
T5 sequence: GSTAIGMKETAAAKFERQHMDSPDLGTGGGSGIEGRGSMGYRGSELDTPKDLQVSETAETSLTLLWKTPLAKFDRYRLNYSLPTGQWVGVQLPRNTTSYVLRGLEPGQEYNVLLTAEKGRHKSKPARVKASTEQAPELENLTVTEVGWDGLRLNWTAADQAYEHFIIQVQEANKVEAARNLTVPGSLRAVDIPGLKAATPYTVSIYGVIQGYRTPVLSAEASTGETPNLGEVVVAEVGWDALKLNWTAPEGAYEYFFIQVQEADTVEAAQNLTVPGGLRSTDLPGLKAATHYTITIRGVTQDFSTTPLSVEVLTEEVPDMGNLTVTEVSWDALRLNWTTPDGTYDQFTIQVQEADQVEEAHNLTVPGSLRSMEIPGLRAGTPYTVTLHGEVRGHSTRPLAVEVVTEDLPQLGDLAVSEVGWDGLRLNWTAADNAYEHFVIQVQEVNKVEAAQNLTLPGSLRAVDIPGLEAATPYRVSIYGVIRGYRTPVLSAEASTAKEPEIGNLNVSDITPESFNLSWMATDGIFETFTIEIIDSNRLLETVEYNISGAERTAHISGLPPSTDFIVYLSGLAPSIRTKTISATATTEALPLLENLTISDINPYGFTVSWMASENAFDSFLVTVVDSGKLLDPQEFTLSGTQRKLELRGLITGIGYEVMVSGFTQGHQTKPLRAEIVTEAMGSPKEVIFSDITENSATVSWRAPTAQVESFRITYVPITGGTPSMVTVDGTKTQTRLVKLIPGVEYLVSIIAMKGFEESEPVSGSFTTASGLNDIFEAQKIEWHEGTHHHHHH
The assay can be described thus: SPR Biacore T200, biotinylated TnC on SA chip, bispecific as analyte, 1:1 fit, apparent KD (bivalent binding). On the procedure:
as §3, §4, §5

Assay [7] addresses T6, human TnC on cells (human, UniProt P24821 23-2201).
T6 construct: Endogenous on U87-MG cells (low or intermediate level) and stably transfected in CT26 cells (CT26huTnC, high level); also called cell surface human TnC; TnC on U87-MG cells
The assay can be described thus: flow cytometry on U87-MG cells.
Description: Cells were then stained for 60 to 120 minutes at 4° C. in the dark in 50 4/well 4° C.
For discrimination of live and dead cells two methods were used. […] Alternatively, cells were washed once with DPBS and were incubated for 15 minutes at dark/4° C. at a cell concentration of 1×10⁶ cell/mL in DPBS containing Zombie Aqua™ Viability Dye [1:800 dilution]. Cells were subsequently washed once with DPBS to remove excess dye before primary antigen binding molecules were added to the cells and the cells were incubated as described above.

Assay [8] deals with T6, human TnC on cells. The assay can be described thus: flow cytometry on CT26huTnC cells.
Assay [9] concerns the target T1, human OX40 on cells. The assay can be described thus: flow cytometry on activated human PBMC, gated on CD4+ T cells; FITC anti-human IgG secondary; MFI baseline corrected. How it is done: as §1
as §2, with “109-096-098). […]” for “109-096-098).”

Substitutions are numbered along the chain they refer to. Numbers in names are those of the source.

T6 sequence (P24821 23-2201 limits assumed): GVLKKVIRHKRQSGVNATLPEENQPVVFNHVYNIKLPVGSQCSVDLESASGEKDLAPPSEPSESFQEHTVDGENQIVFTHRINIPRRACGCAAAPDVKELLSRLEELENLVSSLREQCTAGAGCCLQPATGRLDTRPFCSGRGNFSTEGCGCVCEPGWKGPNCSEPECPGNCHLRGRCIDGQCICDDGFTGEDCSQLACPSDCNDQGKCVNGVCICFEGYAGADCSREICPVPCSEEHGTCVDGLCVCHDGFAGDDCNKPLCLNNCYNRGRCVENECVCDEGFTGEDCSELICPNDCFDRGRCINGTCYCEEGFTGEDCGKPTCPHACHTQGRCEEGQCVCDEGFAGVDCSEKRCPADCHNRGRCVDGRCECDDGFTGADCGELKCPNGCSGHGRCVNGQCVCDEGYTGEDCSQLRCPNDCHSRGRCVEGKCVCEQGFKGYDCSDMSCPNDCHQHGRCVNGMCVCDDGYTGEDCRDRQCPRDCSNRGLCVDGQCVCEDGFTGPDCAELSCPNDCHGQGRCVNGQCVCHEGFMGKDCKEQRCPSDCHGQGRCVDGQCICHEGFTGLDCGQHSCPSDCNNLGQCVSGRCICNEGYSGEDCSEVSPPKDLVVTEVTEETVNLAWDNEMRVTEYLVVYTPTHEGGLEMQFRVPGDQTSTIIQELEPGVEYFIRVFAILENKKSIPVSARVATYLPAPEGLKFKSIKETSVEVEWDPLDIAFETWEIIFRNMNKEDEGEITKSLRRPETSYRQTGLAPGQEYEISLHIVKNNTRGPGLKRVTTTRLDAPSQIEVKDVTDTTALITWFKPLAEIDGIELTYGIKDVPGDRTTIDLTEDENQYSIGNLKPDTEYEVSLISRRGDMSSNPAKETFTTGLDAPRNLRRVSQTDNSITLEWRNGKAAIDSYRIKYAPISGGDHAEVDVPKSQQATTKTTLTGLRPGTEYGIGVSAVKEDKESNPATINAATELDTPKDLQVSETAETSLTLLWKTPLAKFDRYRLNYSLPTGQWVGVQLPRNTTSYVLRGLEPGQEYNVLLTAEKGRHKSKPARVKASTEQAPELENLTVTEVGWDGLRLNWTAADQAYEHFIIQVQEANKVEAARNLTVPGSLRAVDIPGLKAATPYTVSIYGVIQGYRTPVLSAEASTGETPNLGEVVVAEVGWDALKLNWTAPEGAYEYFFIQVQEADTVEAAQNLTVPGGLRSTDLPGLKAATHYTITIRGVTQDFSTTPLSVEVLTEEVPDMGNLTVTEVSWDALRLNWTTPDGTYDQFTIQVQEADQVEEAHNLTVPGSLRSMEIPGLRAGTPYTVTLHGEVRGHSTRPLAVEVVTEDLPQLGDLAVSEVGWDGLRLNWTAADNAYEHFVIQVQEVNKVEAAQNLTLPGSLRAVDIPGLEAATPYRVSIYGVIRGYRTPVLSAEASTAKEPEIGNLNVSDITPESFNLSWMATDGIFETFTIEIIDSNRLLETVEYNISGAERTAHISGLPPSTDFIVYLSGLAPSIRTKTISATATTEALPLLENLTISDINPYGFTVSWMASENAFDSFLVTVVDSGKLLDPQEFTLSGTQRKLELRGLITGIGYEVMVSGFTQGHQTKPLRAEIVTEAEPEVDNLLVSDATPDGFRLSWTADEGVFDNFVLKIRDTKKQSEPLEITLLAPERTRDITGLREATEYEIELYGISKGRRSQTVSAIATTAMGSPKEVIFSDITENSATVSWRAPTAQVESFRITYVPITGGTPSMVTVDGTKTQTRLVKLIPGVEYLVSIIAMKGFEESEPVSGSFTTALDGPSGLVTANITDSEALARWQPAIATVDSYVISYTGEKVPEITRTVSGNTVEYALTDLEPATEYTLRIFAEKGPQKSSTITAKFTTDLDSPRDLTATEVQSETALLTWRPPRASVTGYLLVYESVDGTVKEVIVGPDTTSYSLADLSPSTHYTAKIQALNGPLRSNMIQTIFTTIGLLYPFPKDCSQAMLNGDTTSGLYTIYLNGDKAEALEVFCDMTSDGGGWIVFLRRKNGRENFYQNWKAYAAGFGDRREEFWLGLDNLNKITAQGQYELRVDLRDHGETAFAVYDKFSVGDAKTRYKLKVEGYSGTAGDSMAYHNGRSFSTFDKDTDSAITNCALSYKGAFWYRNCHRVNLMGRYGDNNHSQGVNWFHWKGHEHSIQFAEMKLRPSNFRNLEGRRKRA

B1: 49B4/TnC 18D4 P329GLALA 4 + 2 (ID8035) (bispecific antibody, human IgG1, kappa, L234A L235A)
heavy: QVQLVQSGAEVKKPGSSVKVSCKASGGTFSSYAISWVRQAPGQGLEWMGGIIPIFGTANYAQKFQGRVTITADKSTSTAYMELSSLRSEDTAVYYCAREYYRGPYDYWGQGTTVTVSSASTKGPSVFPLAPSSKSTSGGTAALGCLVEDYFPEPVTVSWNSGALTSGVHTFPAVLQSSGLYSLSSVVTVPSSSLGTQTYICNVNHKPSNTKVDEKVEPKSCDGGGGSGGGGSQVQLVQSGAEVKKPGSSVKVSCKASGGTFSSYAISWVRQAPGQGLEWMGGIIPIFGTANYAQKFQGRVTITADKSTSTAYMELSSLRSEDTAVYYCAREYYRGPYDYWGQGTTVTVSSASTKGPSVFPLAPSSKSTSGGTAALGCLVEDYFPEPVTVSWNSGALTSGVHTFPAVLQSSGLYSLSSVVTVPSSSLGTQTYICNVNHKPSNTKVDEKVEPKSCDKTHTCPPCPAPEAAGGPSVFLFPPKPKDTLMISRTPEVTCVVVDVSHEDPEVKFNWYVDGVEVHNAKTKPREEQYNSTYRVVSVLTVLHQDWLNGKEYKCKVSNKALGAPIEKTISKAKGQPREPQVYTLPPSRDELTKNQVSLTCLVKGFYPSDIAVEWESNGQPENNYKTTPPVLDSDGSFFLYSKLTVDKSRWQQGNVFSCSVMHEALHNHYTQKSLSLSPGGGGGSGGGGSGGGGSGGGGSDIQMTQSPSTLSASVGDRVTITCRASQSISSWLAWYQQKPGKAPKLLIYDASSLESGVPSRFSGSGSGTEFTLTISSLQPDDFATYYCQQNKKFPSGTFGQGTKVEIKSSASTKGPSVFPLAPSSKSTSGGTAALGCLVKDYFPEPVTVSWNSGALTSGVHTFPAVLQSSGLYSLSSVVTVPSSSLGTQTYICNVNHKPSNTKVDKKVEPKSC
light 1: DIQMTQSPSTLSASVGDRVTITCRASQSISSWLAWYQQKPGKAPKLLIYDASSLESGVPSRFSGSGSGTEFTLTISSLQPDDFATYYCQQYSSQPYTFGQGTKVEIKRTVAAPSVFIFPPSDRKLKSGTASVVCLLNNFYPREAKVQWKVDNALQSGNSQESVTEQDSKDSTYSLSSTLTLSKADYEKHKVYACEVTHQGLSSPVTKSFNRGEC
light 2: QVQLVQSGAEVKKPGSSVKVSCKASGGTFSSYAISWVRQAPGQGLEWMGGIIPIFGTANYAQKFQGRVTITADKSTSTAYMELSSLRSEDTAVYYCAKGNFYGGLDYWGQGTTVTVSSASVAAPSVFIFPPSDEQLKSGTASVVCLLNNFYPREAKVQWKVDNALQSGNSQESVTEQDSKDSTYSLSSTLTLSKADYEKHKVYACEVTHQGLSSPVTKSFNRGEC
notes: huIgG1 P329G LALA; also called 49B4/18D4 4 + 2; 4 + 2 TnC (18D4)
In general, EC50 refers to the concentration needed to bring the measured effect to its halfway point. A high value points to a less potent agent. The term EC50 (read off the curve) denotes the concentration that produces a half-maximal response. A low value points to higher potency in that assay. In turn, B1 displayed an EC50 in assay [1] of 0.08 nM. Further, the Kd in assay [2] came to 0.4 nM; in assay [3], 0.65 nM. The “EC50 (read off the curve)” value in assay [4] was approximately 0.1 nM. Further, the binding result in assay [5] is recorded as “binds”.

B2: 49B4/TnC 11C7 P329GLALA 2 + 2 (ID7215) (bispecific antibody, human IgG1, kappa, L234A L235A)
heavy: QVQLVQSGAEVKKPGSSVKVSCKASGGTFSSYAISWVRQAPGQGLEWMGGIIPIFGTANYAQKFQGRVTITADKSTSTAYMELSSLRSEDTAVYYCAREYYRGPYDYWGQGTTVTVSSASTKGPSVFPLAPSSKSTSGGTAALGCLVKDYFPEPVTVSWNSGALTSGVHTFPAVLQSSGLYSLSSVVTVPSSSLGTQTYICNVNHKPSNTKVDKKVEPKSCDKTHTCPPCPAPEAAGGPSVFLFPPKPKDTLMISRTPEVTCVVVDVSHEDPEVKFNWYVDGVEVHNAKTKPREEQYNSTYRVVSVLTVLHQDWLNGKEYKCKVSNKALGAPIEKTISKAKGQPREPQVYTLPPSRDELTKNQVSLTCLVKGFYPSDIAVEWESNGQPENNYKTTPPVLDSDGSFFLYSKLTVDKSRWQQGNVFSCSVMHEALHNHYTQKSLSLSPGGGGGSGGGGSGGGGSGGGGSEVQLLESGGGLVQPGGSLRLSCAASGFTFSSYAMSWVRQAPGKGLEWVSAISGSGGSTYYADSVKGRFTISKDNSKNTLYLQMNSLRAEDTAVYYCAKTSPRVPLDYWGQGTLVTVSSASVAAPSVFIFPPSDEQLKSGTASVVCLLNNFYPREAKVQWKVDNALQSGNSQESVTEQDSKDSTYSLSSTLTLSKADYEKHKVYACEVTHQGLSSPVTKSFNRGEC
light 1: B1 light 1 with R123E, K124Q
light 2: SSELTQDPAVSVALGQTVRVTCQGDSLRSYYASWYQQKPGQAPVLVIYGKNNRPSGIPDRFSGSSSGNTASLTITGAQAEDEADYYCNSINSTRNEVFGGGTKLTVLSSASTKGPSVFPLAPSSKSTSGGTAALGCLVKDYFPEPVTVSWNSGALTSGVHTFPAVLQSSGLYSLSSVVTVPSSSLGTQTYICNVNHKPSNTKVDKKVEPKSCD
notes: huIgG1 P329G LALA; 49B4 VHCH1-Fc-(G4S)4-11C7 VHCL heavy chain, 49B4 VLCL light chain, 11C7 VLCH1 crossed light chain; also called 2 + 2 (49B4/11C7); 49B4/11C7 2 + 2
On to B2, for which the EC50 in assay [1] worked out at 4.22 nM. In assay [6], the Kd is 5.85 nM. In addition, the binding result in assay [5] is “binds”.

B3: parental bivalent anti-TnC antibody clone18D4 (antibody, V domains shown)
VH: QVQLVQSGAEVKKPGSSVKVSCKASGGTFSSYAISWVRQAPGQGLEWMGGIIPIFGTANYAQKFQGRVTITADKSTSTAYMELSSLRSEDTAVYYCAKGNFYGGLDYWGQGTTVTVSS
VL: DIQMTQSPSTLSASVGDRVTITCRASQSISSWLAWYQQKPGKAPKLLIYDASSLESGVPSRFSGSGSGTEFTLTISSLQPDDFATYYCQQNKKFPSGTFGQGTKVEIK
notes: Human IgG1; also called αTnC (18D4); anti-TnC 18D4 IgG
Regarding B3, the EC50 in assay [7] was found to be 8.21 nM; in assay [8], 2.69 nM. Moreover, the binding result in assay [9] is listed as “no binding (tested: 100 nM)”.
